In IntAct's records for PubMed 18256285:

Molecular target: sdcb1_human SDCBP (UniProt O00560)
UniProt O00560, sequence (O00560 whole entry): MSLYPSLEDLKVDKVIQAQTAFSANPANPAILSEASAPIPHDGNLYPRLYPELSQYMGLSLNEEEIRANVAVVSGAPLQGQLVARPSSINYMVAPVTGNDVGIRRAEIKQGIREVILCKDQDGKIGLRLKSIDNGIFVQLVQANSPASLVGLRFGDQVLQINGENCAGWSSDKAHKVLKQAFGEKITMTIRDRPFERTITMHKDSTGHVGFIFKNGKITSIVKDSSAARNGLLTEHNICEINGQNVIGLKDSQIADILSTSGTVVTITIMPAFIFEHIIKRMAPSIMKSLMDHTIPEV

effect of a mutation on the interaction	Substance
disrupting interaction	Frizzled-7 (Homo sapiens) (from UniProt O75084) T572A
disrupting interaction	Frizzled-7 (Homo sapiens) (from UniProt O75084) T572A;V574A
decreasing interaction	Frizzled-7 (Homo sapiens) (from UniProt O75084) V574A
